What was measured:
NF-κB = NF-κB ELAM-luciferase reporter assay in co-transfected 293T cells; type: cell-based, Human; conditions: 293T cells co-transfected with ligand and receptor; 20 hr after transfection
Method: Human 293T cells were co-transfected with the indicated amounts of expression plasmids along with 250 ng of ELAM-luciferase reporter gene plasmid and 25 ng pRL-TK. 20 hr after transfection, reporter gene activity was determined with the dual-luciferase reporter assay system (Promega).

BAFF [1] = biological target: T1, BAFF (Homo sapiens, UniProt Q9Y275); assay: Competitive surface plasmon resonance, BAFF binding to immobilized BCMA-Fc; conditions: competition with immobilized BCMA-Fc
T1 construct: made in house
T1 sequence (Q9Y275 82-285 limits assumed): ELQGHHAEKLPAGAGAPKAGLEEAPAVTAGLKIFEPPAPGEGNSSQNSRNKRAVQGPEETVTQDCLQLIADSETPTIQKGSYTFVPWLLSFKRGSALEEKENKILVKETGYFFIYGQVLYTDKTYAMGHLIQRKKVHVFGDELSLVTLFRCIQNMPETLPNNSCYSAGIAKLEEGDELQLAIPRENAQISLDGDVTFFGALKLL
Text: (§1) Surface plasmon resonance (SPR) measurements on a BIAcore 3000 instrument (Pharmacia Biosensor) were used to measure binding affinities of receptors to immobilized APRIL and BAFF by competition binding. […] In these experiments, receptors in solution competed for binding of ligand in solution at room temperature with immobilized BCMA-Fc. BCMA-Fc was coupled to flow cell 2 of a CM4 sensor chip, using the amine coupling protocol supplied by the manufacturer, at a high density (4500 resonance units) so that the initial rate of binding was linearly dependent on the concentration of free ligand. In all experiments flow cell 1 was ethanolamine-blocked and used as the reference cell. Washing with 10 mM HCl regenerated flow cells between sample injections. In order to determine the ligand concentration necessary to obtain the optimal for competition experiments, a preliminary binding study was performed for each ligand where two-fold dilutions of the ligand ranging from 400 nM to 6.25 nM were injected over the BCMA-Fc surface. […] The IC50 values were calculated using a four-parameter curve fit (y=((m1−m4)/(1+(m0/m3)̂m2))+m4) of the initial binding rates for the receptor/control (Vi/Vo) as a function of receptor concentration.

APRIL [2] = biological target: T2, APRIL (Mus musculus, UniProt Q9D777); assay: Competitive ELISA, APRIL; type: binding, murine; conditions: data not shown
T2 construct: made in house
T2 sequence (Q9D777 105-241): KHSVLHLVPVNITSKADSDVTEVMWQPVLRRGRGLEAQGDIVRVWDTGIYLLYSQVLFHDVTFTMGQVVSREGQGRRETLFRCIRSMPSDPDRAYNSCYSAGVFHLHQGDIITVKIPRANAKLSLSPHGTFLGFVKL

BAFF [3] = biological target: T1, BAFF; assay: Competitive ELISA, BAFF; type: binding; conditions: data not shown
APRIL [4] = biological target: T2, APRIL; assay: Competitive surface plasmon resonance, APRIL binding to immobilized BCMA-Fc; parameters: species or system murine; conditions: competition with immobilized BCMA-Fc
Text: as §1

| Molecule | NF-κB activation by APRIL or BAFF (NF-κB) | affinity for BAFF, comparison in words (BAFF [1]) | binding to APRIL, in words (APRIL [2]) | binding to BAFF, in words (BAFF [3]) | affinity for APRIL, comparison in words (APRIL [4]) |
| --- | --- | --- | --- | --- | --- |
| shortTACI: TACI splice variant: first 20 residues, one tryptophan in place of the 47 residues encoding CRD1, then the rest of the protein (protein) MSGLGRSRRGGRSRVDQEERWSLSCRKEQGKFYDHLLRDCISCASICGQHPKQCAYFCENKLRSPVNLPPELRRQRSGEVENNSDNSGRYQGLEHRGSEASPALPGLKLSADQVALVYSTLGLCLCAVLCCFLVAVACFLKKRGDPCSCQPRSRPRQSPAKSSQDHAMEAGSPVSTSPEPVETCSFCFPECRAPTQESAVTPGTPDPTCAGRWGCHTRTTVLQPCPHIPDSGLGIVCVPAQEGGPGA | capable of mediating NF-κB activation | – | – | – | – |
| TACI_d1d2: residues 21-116 of the TACI extracellular domain (both CRDs) with a C-terminal His-tag (protein, UniProt O14836 21-116, looked up, fragment, extracellular domain C-terminal His-tag, residues 21-116 of the TACI extracellular domain (both CRDs) with a C-terminal His-tag) FPQGLWTGVAMRSCPEEQYWDPLLGTCMSCKTICNHQSQRTCAAFCRSLSCRKEQGKFYDHLLRDCISCASICGQHPKQCAYFCENKLRSPVNLPP | – | did not confer additional affinity | no improvement in binding | no improvement in binding | did not confer additional affinity |

— patent publication US20080181886A1, “Polypeptides That Bind Baff And/Or April” (Genentech, Inc., priority 2004, published 2008)
